These results are taken from PMC6465249 (Cell Discovery, 2019).

A word on the Kd: it is the constant that tells how readily two partners part at equilibrium.

What all share (details): both partners purified
Experiment [1] deals with Recombinant hemagglutinin of H4N6 A/duck/Czech/1956, ectodomain, monomeric (Influenza A virus A/duck/Czech/1956 …, strain). The experiment in a line: SPR. On the technique in general: In SPR one partner is held on a chip, and binding of the other changes the refractive index at the surface.
The target in experiment [2] is Recombinant hemagglutinin of H14N6 A/long-tailed duck/Wisconsin/10OS3912/2010, ectodomain, monomeric (Influenza A virus A/long-tailed …, UniProt G5DSS3, strain). Put plainly: SPR.
Experiment [3] has as its target Recombinant hemagglutinin of H7N9 A/Anhui/1/2013, ectodomain (Influenza A virus A/Anhui/1/2013 …, UniProt A0A024E3P0, strain). Put plainly: SPR.
The target of experiment [4] is Recombinant hemagglutinin of H10N8 A/Jiangxi-Donghu/346/2013, ectodomain, monomeric (Influenza A virus …, strain). Put plainly: SPR.
Experiment [5] addresses Recombinant hemagglutinin of H3N2 A/Aichi/2/1968, ectodomain, monomeric (Influenza A virus A/Aichi/2/1968 (H3N2), strain). Put plainly: SPR.
The target in experiment [6] is T1, H3 HA (strain not given) (Influenza A virus A/Aichi/2/1968 (H3N2)). The experiment in a line: SPR.
Experiment [7] addresses H14 HA (H14N6 A/long-tailed duck/Wisconsin/10OS3912/2010) (Influenza A virus A/long-tailed …, UniProt G5DSS3). Put plainly: SPR.
For experiment [8], the target named is T1, H3 HA (strain not given). The experiment in a line: ELISA. In general terms: An ELISA detects its analyte on a solid surface through an enzyme-linked reagent.
Experiment [9] has as its target Recombinant hemagglutinin of H15N8 A/duck/Australia/341/1983, ectodomain, monomeric (Influenza A virus …, UniProt Q82565, strain). Put plainly: SPR.

B1: AF4H1K1 Fab (Fab, V domains shown)
VH: QVQLVESGGGVVQPGTSLRLSCEASGFTSSAYAMHWVRQAPGKGLEWVAVITFDGGYQYYADSVKGRFTISRDISRNTLHLHMNSLRAEDTAVYYCARDPLTKLLPFDWVSGGYFDYWGQGTLVTVSS
VL: not shown
notes: also called H1 paired with K1
On to B1, for which the Kd is 9 nM in [1]; 16 nM in [2]; 14 nM in experiment [3]; 21 nM in [4]; 0.79 nM in [5].

B2: AF4H1K1 Fab (Fab, V domains shown)
VH: B1 VH
VL: not shown
notes: also called AF4H1K1 Fab fragment
In the case of B2, the binding result in experiment [6] and in [7] was “binds” in each case.

B3: AF4H1/L1CDR3m (antibody, V domains shown)
VH: B1 VH
VL: SYELTQPPSVSVSPGQTASITCSGDKLGDKYACWYQQKPGQSPVLVIYQDSKRPSGIPERFSGSNSGNTATLTISGTQAMDEADYYCQQYGSSFTFGTGTKVTVL
notes: IgG; copies: 2 + 2
In the case of B3, the binding result in experiment [8] is reported as “no binding”.

B4: AF4H1/FI6v3L Fab (Fab, V domains shown)
VH: B1 VH
VL: not shown
notes: also called AF4H1/FI6L; hybrid MAb with heavy chain from AF4H1K1 and light chain from FI6v3
As to B4, the Kd is 1.93 nM in experiment [1]; 15.9 nM in experiment [2]; 11.2 nM in experiment [3]; 37.7 nM in experiment [4]; 518 nM in [9]; 0.0764 nM in [5].
